Source: patent publication US20250333467A1 (TECTONIC OPERATING, published 2025)
Positions count from the first letter of the chain named.

T1: human RXFP1 (human, UniProt Q9HBX9 1-757)
T1 sequence (looked up): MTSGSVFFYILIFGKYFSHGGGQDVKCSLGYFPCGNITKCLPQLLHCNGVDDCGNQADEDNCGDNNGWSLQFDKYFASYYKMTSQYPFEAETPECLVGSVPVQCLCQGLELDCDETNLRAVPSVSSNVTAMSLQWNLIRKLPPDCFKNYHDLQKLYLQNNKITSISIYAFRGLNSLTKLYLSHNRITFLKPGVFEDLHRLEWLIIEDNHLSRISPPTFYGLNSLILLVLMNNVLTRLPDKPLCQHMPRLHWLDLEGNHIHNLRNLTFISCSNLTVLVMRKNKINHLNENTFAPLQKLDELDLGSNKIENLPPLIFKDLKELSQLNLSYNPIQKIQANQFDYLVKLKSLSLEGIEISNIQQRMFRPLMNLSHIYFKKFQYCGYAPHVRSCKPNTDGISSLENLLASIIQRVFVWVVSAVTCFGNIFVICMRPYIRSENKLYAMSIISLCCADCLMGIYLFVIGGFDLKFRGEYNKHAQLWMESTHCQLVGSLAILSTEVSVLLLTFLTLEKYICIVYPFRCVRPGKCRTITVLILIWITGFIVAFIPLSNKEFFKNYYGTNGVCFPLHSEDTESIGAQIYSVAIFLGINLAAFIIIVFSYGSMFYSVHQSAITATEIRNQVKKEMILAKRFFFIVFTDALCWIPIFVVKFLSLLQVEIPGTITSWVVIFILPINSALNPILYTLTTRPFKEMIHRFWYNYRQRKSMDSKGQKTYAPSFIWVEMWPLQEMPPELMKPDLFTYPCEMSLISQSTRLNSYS

B1: SEQ ID NO: 319 (Fc fusion)
chain: DKTHTCPPCPAPEAAGGPSVFLFPPKPKDTLMISRTPEVTCVVVDVSHEDPEVKFNWYVDGVEVHNAKTKPREEQYNSTYRVVSVLTVLHQDWLNGKEYKCKVSNKALAAPIEKTISKAKGQPREPQVYTLPPSRDELTKNQVSLTCLVKGFYPSDIAVEWESNGQPENNYKTTPPVLDSDGSFFLYSKLTVDKSRWQQGNVFSCSVLHEALHSHYTQKSLSLSPGKGGSDSWQEEVIKLCGRELVRAQIAICGKSTGGGEEGGGEEGGGRQLYSALANKCCHVGCTKRSLARFC
B2: SEQ ID NO: 321 (Fc fusion)
chain: B1 chain with R293Q
B3: SEQ ID NO: 325 (Fc fusion)
chain: DKTHTCPPCPAPEAAGGPSVFLFPPKPKDTLMISRTPEVTCVVVDVSHEDPEVKFNWYVDGVEVHNAKTKPREEQYNSTYRVVSVLTVLHQDWLNGKEYKCKVSNKALAAPIEKTISKAKGQPREPQVYTLPPSRDELTKNQVSLTCLVKGFYPSDIAVEWESNGQPENNYKTTPPVLDSDGSFFLYSKLTVDKSRWQQGNVFSCSVLHEALHSHYTQKSLSLSPGGGSDSWQEEVIKLCGRELVRAQIAICGKSTGGGEEGGGEEGGGRQLYSALANKCCHVGCTKRSLAQFC
B4: SEQ ID NO: 326 (Fc fusion)
chain: B1 chain with G260E, E261G, G265E, E266G, G270S, R293Q
B5: SEQ ID NO: 327 (Fc fusion)
chain: B3 chain with G259E, E260G, G264E, E265G, G269S, Q292R
B6: SEQ ID NO: 328 (Fc fusion)
chain: B3 chain with G259E, E260G, G264E, E265G, G269S
B7: SEQ ID NO: 84 (Fc fusion)
chain: DKTHTCPPCPAPEAAGGPSVFLFPPKPKDTLMISRTPEVTCVVVDVSHEDPEVKFNWYVDGVEVHNAKTKPREEQYNSTYRVVSVLTVLHQDWLNGKEYKCKVSNKALAAPIEKTISKAKGQPREPQVYTLPPSRDELTKNQVSLTCLVKGFYPSDIAVEWESNGQPENNYKTTPPVLDSDGSFFLYSKLTVDKSRWQQGNVFSCSVLHEALHSHYTQKSLSLSPGKGGSDSWQEEVIKLCGRELVRAQIAICGKSTASDAAGADANAGARQLYSALANKCCHVGCTKRSLAQFC
B8: SEQ ID NO: 85 (Fc fusion)
chain: B7 chain with D265N, N267D
B9: SEQ ID NO: 88 (Fc fusion)
chain: B7 chain with D265Q, N267D
B10: SEQ ID NO: 89 (Fc fusion)
chain: B7 chain with N267Q
B11: SEQ ID NO: 92 (Fc fusion)
chain: B7 chain with K227E, D265N, N267D
B12: SEQ ID NO: 94 (Fc fusion)
chain: B7 chain with K227E, D265E, N267E

Target: T1, human RXFP1
Assay: cell-based or functional assay

Row | Binder | Potency (cAMP, transient hRXFP1 in HEK293) [nM]
1 | B1 | 5.8
2 | B2 | 10.2
3 | B3 | 23.4
4 | B4 | 18.9
5 | B5 | 9.3
6 | B6 | 41.9
7 | B7 | 1.9
8 | B8 | 2
9 | B9 | 1.4
10 | B10 | 2.5
11 | B11 | 4.3
12 | B12 | 12.2
